Biological target: Flag-tagged full-length mouse sphingosine 1-phosphate receptor-1 (S1P1) (mouse, UniProt O08530 1-382)
Experiment: co-IP

Chain of Flag-tagged full-length mouse sphingosine 1-phosphate receptor-1 (S1P1) (O08530 whole entry): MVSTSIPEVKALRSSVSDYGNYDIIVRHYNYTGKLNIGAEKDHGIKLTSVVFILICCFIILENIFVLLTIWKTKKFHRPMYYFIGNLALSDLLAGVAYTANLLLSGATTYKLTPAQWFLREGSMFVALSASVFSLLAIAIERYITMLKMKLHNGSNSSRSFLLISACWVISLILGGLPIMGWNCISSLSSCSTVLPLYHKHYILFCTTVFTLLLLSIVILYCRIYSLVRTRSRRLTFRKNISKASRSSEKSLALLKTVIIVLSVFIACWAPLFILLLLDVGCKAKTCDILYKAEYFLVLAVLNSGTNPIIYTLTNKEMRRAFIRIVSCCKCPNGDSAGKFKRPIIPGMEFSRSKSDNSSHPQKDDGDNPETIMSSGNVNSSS

B1: HA-tagged mouse CD69 (natural protein, UniProt P37217 1-199, looked up)
chain: MDSENCSITENSSSHLERGQKDHGTSIHFEKHHEGSIQVSIPWAVLIVVLITSLIIALIALNVGKYNCPGLYEKLESSDHHVATCKNEWISYKRTCYFFSTTTKSWALAQRSCSEDAATLAVIDSEKDMTFLKRYSGELEHWIGLKNEANQTWKWANGKEFNSWFNLTGSGRCVSVNHKNVTAVDCEANFHWVCSKPSR
**Q.** B1 was tested. Which “fold interaction compared with the control proteins NKRp1A and S1P3” value did it give?
**A.** 10 fold

— article PMC2903414 (The Journal of Biological Chemistry, 2010)
